Assay results from patent US20240199740A1 (Ablynx, published 2024).

T1: cynomolgus CD123 expressed on HEK Flp-In cells (cynomolgus)
T1 construct: EHH61867.1; also called cyCD123; cyno CD123
T1 chain: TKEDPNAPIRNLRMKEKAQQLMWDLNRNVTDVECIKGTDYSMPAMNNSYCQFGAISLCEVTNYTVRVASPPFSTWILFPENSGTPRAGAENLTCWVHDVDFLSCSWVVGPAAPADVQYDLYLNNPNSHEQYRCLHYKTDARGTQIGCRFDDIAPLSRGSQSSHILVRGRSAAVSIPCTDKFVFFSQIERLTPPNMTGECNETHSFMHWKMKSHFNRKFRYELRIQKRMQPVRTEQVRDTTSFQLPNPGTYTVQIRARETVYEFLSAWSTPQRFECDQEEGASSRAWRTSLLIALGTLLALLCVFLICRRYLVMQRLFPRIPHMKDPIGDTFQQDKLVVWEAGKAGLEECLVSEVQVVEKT

T2: recombinant human CD123 protein (R&D Systems, 301-R3/CF) (human, UniProt P26951 19-305)
T2 construct: Bought recombinant His-tagged extracellular domain of human CD123; also called recombinant CD123; in house biotinylated-CD123 recombinant protein; not shown: His tag of the bought protein
T2 sequence: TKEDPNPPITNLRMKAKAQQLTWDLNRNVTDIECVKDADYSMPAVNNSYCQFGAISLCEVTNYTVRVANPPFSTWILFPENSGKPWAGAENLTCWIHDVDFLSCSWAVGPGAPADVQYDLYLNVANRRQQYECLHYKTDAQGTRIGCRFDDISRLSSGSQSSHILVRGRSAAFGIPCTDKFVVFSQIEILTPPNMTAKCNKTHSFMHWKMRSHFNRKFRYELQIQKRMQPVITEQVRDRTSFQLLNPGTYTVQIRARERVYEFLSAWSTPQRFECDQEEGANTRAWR


Tests used:
human CD123 [1] = molecular target: T3, human CD123 (human, UniProt P26951 19-378); assay: cell-based or functional assay
human CD123 [2] = molecular target: T3, human CD123; assay: cell-based or functional assay; remark: listed apart in the source
[3] = molecular target: T4, human CD123 expressed on cells (human, UniProt P26951 19-378); assay: flow cytometry competition, CHO Flp-In huCD123 cells, competitor A0110056A10-Alexa647 (0.9 nM)
T4 construct: the cell line is named under assay; also called huCD123; IL-3Rα
Procedure: (§1) Next to binding to the MOLM-13 and CHO Flp-In huCD123 cells, binding to cyno CD123 transfected HEK Flp-In cells was assessed.

[4] = molecular target: T1, cynomolgus CD123 expressed on HEK …; assay: flow cytometry competition, HEK Flp-In cyCD123 cells, competitor A0110056A10-Alexa647 (0.9 nM)
Procedure: as §1

[5] = molecular target: T4, human CD123 expressed on cells; assay: cell-based or functional assay
[6] = molecular target: T4, human CD123 expressed on cells; assay: flow cytometry competition, MOLM-13 cells, competitor A0110056A10-Alexa647 (0.4 nM)
Procedure: as §1

[7] = molecular target: T4, human CD123 expressed on cells; assay: cell-based or functional assay; remark: listed apart in the source
[8] = molecular target: T5, cynomolgus TCR/CD3 expressed on cells (cynomolgus); assay: flow cytometry competition, HSC-F cells, competitor T017000099 (500 nM)
T5 construct: whole, on cells; Native complex with CD3 chains; the cell type is named under assay or readout; also called cyno TCR/CD3; CD3/TCR expressed on HSC-F
Procedure: Cells were washed and incubated with Propidium Iodine to stain for dead cells, which are then removed during the gating procedure. The cells were then analysed via a BD FACSArray. First a P1 population which represented more than 80% of the total cell population was selected based on FSC-SSC distribution. In this gate, 10000 cells were counted during acquisition. From this population the PI+ cells (dead cells) were excluded and the median APC value was calculated.

[9] = molecular target: T4, human CD123 expressed on cells; assay: cell-based or functional assay; remark: listed apart in the source
[10] = molecular target: T5, cynomolgus TCR/CD3 expressed on cells; assay: cell-based or functional assay
[11] = molecular target: T4, human CD123 expressed on cells; assay: cell-based or functional assay; remark: listed apart in the source
[12] = molecular target: T5, cynomolgus TCR/CD3 expressed on cells; assay: cell-based or functional assay; remark: listed apart in the source
[13] = molecular target: T2, recombinant human CD123 protein (R&D …); assay: SPR (ProteOn XPR36), CD123 immobilized
Procedure: Binding affinities for the CD123/TCR multispecific polypeptides were evaluated by means of an SPR based affinity determination on a ProteOn XPR36 instrument. […] The dissociation time of the 1000 nM sample was 15 min. Flow rate was 45 μl/min and ProteOn running buffer (PBS, pH 7.4, 0.005% Tween 20) was used as running buffer. Evaluation of the association/dissociation data was performed by fitting a 1:1 interaction model (Langmuir binding model).

Row | Binder | IC50 [3] [pM] | IC50 [4] [pM] | % lysis, redirected human T cell mediated killing of KG1a cells, flow cytometry, E:T 10:1 [5] [%] | EC50 (M), redirected human T cell mediated killing of KG1a cells, flow cytometry, E:T 10:1 [5] [M] | IC50 [6] [pM] | EC50 (M), IFN-γ secretion by cynomolgus T cells during killing of CD123 transfected adherent target cells [7] [M] | EC50 (M), IFN-γ secretion by human T cells during killing of CD123 transfected adherent target cells [7] [M] | IC50 [8] [pM] | % lysis, redirected human T cell mediated killing of MOLM-13 cells, flow cytometry, E:T 10:1 [9] [%] | EC50 (M), redirected human T cell mediated killing of MOLM-13 cells, flow cytometry, E:T 10:1 [9] [M] | % lysis, redirected cyno T cell mediated killing of MOLM-13 cells, flow cytometry, E:T 10:1 [10] [%] | EC50 (M), redirected cyno T cell mediated killing of MOLM-13 cells, flow cytometry, E:T 10:1 [10] [M] | EC50 (M), human IL-6 secretion during human T cell mediated killing of CD123 transfected adherent target cells [11] [M] | % lysis, redirected cyno T cell mediated killing of KG1a cells, flow cytometry [12] [%] | EC50 (M), redirected cyno T cell mediated killing of KG1a cells, flow cytometry [12] [M] | also measured
1 | T017000138 (bispecific antibody) DVQLVESGGGLVQPGGSLRLSCVASGDVHKINFLGWYRQAPGKEREKVAHISIGDQTDYADSAKGRFTISRDESKNMVYLQMNSLKPEDTAVYFCRAFSRIYPYDYWGQGTLVTVSSGGGGSGGGGSGGGGSGGGGSGGGGSGGGGSGGGGSEVQLVESGGGLVQAGGSLRLSCAASGITSKINDMGWYRQTPGNYREWVASITATGTTNYRDSVKGRFTISRDNAKSTVYLQMNSLKPEDTTVYYCNTFPPISNFWGQGTLVTVSSGGGGSGGGGSGGGGSGGGGSGGGGSGGGGSGGGGSEVQLVESGGGLVQAGGPLRLSCAASGRTFSSYVMGWFRQAPGKEREFVAAIYWSNGKTQYTDSVKGRFTISGDNAKNTVYLQMNSLNPEDTAVYYCVADKDETGFRTLPIAYDYWGQGTLVTVSSA |  |  |  |  |  |  |  |  |  |  |  |  |  |  |  | % lysis, redirected cynomolgus T cell mediated killing of KG1a cells, flow cytometry, E:T 10:1 (human CD123 [1]): 21%; % lysis, redirected human T cell mediated killing of KG1a cells, flow cytometry, E:T 10:1 (human CD123 [1]): 64%; EC50 (M), redirected cynomolgus T cell mediated killing of KG1a cells, flow cytometry, E:T 10:1 (human CD123 [1]): 2.8e-11 M; EC50 (M), redirected human T cell mediated killing of KG1a cells, flow cytometry, E:T 10:1 (human CD123 [1]): 1.6e-10 M; EC50 (M), redirected cynomolgus T cell mediated killing of MOLM-13 cells, flow cytometry, E:T 10:1 (human CD123 [2]): 1.5e-10 M; EC50 (M), redirected human T cell mediated killing of MOLM-13 cells, flow cytometry, E:T 10:1 (human CD123 [2]): 1.1e-10 M
2 | T017000138 (bispecific antibody, Multispecific Nanobody polypeptide expressed in Pichia) DVQLVESGGGLVQPGGSLRLSCVASGDVHKINFLGWYRQAPGKEREKVAHISIGDQTDYADSAKGRFTISRDESKNMVYLQMNSLKPEDTAVYFCRAFSRIYPYDYWGQGTLVTVSSGGGGSGGGGSGGGGSGGGGSGGGGSGGGGSGGGGSEVQLVESGGGLVQAGGSLRLSCAASGITSKINDMGWYRQTPGNYREWVASITATGTTNYRDSVKGRFTISRDNAKSTVYLQMNSLKPEDTTVYYCNTFPPISNFWGQGTLVTVSSGGGGSGGGGSGGGGSGGGGSGGGGSGGGGSGGGGSEVQLVESGGGLVQAGGPLRLSCAASGRTFSSYVMGWFRQAPGKEREFVAAIYWSNGKTQYTDSVKGRFTISGDNAKNTVYLQMNSLNPEDTAVYYCVADKDETGFRTLPIAYDYWGQGTLVTVSSA | 3600 | 12000 | 24 | 2.8e-10 | 3500 | 8.7e-10 | 4e-10 | 440000 | 22 | 2.3e-11 | 47 | 1.7e-11 | 3.8e-11 | 38 | 8.8e-11 | 
3 | T017000116 (bispecific antibody, Multispecific Nanobody polypeptide expressed in Pichia; also called A0110056A10-35GS-A0110055F03-35GS-T0170056G05-FLAG3-HIS6; not shown: C-terminal FLAG3-HIS6 tag) EVQLVESGGGLVQAGGSLRLSCAASGITSKINDMGWYRQTPGNYREWVASITATGTTNYRDSVKGRFTISRDNAKSTVYLQMNSLKPEDTTVYYCNTFPPISNFWGQGTLVTVSSGGGGSGGGGSGGGGSGGGGSGGGGSGGGGSGGGGSEVQLVESGGGLVQAGGPLRLSCAASGRTFSSYVMGWFRQAPGKEREFVAAIYWSNGKTQYTDSVKGRFTISGDNAKNTVYLQMNSLNPEDTAVYYCVADKDETGFRTLPIAYDYWGQGTLVTVSSGGGGSGGGGSGGGGSGGGGSGGGGSGGGGSGGGGSEVQLVESGGGLVQPGGSLRLSCVASGDVHKINFLGWYRQAPGKEREKVAHISIGDQTDYADSAKGRFTISRDESKNMVYLQMNSLKPEDTAVYFCRAFSRIYPYDYWGQGTLVTVSS | 1600 | 5600 | 5 | 4.2e-10 | 1800 |  | 8.1e-09 |  | 17 | 2.2e-10 | 15 | 3.9e-10 | 9.6e-09 | 14 | 3.7e-10 | Kd [13]: 880 pM
4 | T017000128 (bispecific antibody, Multispecific Nanobody polypeptide expressed in Pichia) DVQLVESGGGLVQPGGSLRLSCVASGDVHKINFLGWYRQAPGKEREKVAHISIGDQTDYADSAKGRFTISRDESKNMVYLQMNSLKPEDTAVYFCRAFSRIYPYDYWGQGTLVTVSSGGGGSGGGGSGGGGSGGGGSGGGGSGGGGSGGGGSEVQLVESGGGLVQAGGSLRLSCAASGITSKINDMGWYRQTPGNYREWVASITATGTTNYRDSVKGRFTISRDNAKSTVYLQMNSLKPEDTTVYYCNTFPPISNFWGQGTLVTVSSA | 5800 | 31000 | 28 | 8.7e-10 | 3100 | 1e-10 | 8.6e-11 | 630000 | 20 | 1.5e-10 | 50 | 1.8e-10 | 6.9e-11 | 38 | 3.2e-10 | 
5 | T017000129 (bispecific antibody, Control: anti-TCR Nanobody linked to the irrelevant anti-RSV Nanobody; also called irrelevant multivalent polypeptide T017000129) DVQLVESGGGLVQPGGSLRLSCVASGDVHKINFLGWYRQAPGKEREKVAHISIGDQTDYADSAKGRFTISRDESKNMVYLQMNSLKPEDTAVYFCRAFSRIYPYDYWGQGTLVTVSSGGGGSGGGGSGGGGSGGGGSGGGGSGGGGSGGGGSEVQLVESGGGLVQAGDSLRLSCAASGRTFSSYAMGWFRQAPGKEREFVAAISWSDGSTYYADSVKGRFTISRDNAKNTVYLQMNSLKPEDTAVYYCAADLTSTNPGSYIYIWAYDYWGQGTLVTVSSA |  |  |  |  |  |  |  | 520000 |  |  |  |  |  |  |  | 
